This test concerns the target chimeric avidin mutant A/A2-B I109K. Nature of the test: SDS-PAGE stability assay; 55 µM acetylated protein in pH 7 buffer, with or without biotin-5-fluorescein, 20 min at 20-100°C, sample buffer without SDS, 15% gel; control boiled with 2% SDS and 0.5% β-mercaptoethanol.

Take chimeric avidin mutant A/A2-B I109K: the stoichiometry N turned out to be 4.

The record behind these values is paper PMC3954883.
